Measured values published in US20210238268A1 (ATARGA, published 2021).
Where a chain is given by its changes, count along the chain named.

B1: ATG-008 (antibody, IgG2)
heavy: QVQLVQSGAEVKKPGASVKVSCKASGHIFTDFYMQWVRQAPGQGLEWMGEILPGTGHTEYAQKFQGRVTMTRDTSISTVYMEVRRLRSDDTAVYYCARYFFGSTPNWYFDVWGQGTLVTVSSASTKGPSVFPLAPCSRSTSESTAALGCLVKDYFPEPVTVSWNSGALTSGVHTFPAVLQSSGLYSLSSVVTVPSSNFGTQTYTCNVDHKPSNTKVDKTVERKCCVECPPCPAPPVAGPSVFLFPPKPKDTLMISRTPEVTCVVVDVSQEDPEVQFNWYVDGVEVHNAKTKPREEQFNSTYRVVSVLTVLHQDWLNGKEYKCKVSNKGLPSSIEKTISKAKGQPREPQVYTLPPSQEEMTKNQVSLTCLVKGFYPSDIAVEWESNGQPENNYKTTPPVLDSDGSFFLYSRLTVDKSRWQEGNVFSCSVLHEALHSHYTQKSLSLSLGK
light: EIVMTQSPSSLSASVGDRVTITCGATENIYGALNWYQHEPGKAPKLLIYGASNRYTGVTSRFSGSGSGTDFTLTISTLQPEDFATYYCQQVLNTPVSFGGGTKVDIKRTVAAPSVFIFPPSDEQLKSGTASVVCLLNNFYPREAKVQWKVDNALQSGNSQESVTEQDSKDSTYSLSSTLTLSKADYEKHKVYACEVTHQGLSSPVTKSFNRGEC
notes: Expressed in Expi CHO cells; also called anti-C5 monoclonal antibody ATG-008
B2: ATG-012 (antibody, IgG2)
heavy: B1 heavy with M253Y, S255T, T257E, L429M, S435N
light: B1 light
notes: Same variable regions as ATG-008; Expressed in Expi CHO cells; also called anti-C5 monoclonal antibody ATG-012
B3: ATG-001 (antibody, V domains shown)
VH: QVQLVQSGAEVKKPGASVKVSCKASGYIFTNYWMQWVRQAPGQGLEWMGEILPGTGSTEYAQKFQGRVTMTRDTSISTVYMEVRRLRSDDTAVYYCARYFFGSTPNWYFDVWGQGTLVTVSS
VL: EIVMTQSPSSLSASVGDRVTITCGATENIYGALNWYQHEPGKAPKLLIYGASNLADGVTSRFSGSGSGTDFTLTISTLQPEDFATYYCQNVLNTPLSFGGGTKVDIKR
notes: Expressed in Expi CHO cells; also called anti-C5 monoclonal antibody ATG-001
B4: ATG-006 (antibody, V domains shown)
VH: B3 VH with N31D, Y32F, W33Y
VL: B3 VL with L54R, A55Y, D56T, N90Q, L96V
notes: Expressed in Expi CHO cells; also called anti-C5 monoclonal antibody ATG-006
B5: ATG-005 (antibody, V domains shown)
VH: B3 VH
VL: B3 VL with L54R, A55Y, D56T, N90Q, L96V
notes: Expressed in Expi CHO cells; also called anti-C5 monoclonal antibody ATG-005

These binders were tested against T1, human Complement component 5 (C5) (human, UniProt P01031 19-1676, limits assumed) (assay: ELISA, binding to human C5 at pH 7.4 (C5 ELISA, absorbance at 450 nm)).
T1 construct: also called human C5
Protocol: The exemplary antibodies were tested for binding to human C5 at pH 7.4 using ELISA.

T1 sequence (P01031 19-1676 limits assumed): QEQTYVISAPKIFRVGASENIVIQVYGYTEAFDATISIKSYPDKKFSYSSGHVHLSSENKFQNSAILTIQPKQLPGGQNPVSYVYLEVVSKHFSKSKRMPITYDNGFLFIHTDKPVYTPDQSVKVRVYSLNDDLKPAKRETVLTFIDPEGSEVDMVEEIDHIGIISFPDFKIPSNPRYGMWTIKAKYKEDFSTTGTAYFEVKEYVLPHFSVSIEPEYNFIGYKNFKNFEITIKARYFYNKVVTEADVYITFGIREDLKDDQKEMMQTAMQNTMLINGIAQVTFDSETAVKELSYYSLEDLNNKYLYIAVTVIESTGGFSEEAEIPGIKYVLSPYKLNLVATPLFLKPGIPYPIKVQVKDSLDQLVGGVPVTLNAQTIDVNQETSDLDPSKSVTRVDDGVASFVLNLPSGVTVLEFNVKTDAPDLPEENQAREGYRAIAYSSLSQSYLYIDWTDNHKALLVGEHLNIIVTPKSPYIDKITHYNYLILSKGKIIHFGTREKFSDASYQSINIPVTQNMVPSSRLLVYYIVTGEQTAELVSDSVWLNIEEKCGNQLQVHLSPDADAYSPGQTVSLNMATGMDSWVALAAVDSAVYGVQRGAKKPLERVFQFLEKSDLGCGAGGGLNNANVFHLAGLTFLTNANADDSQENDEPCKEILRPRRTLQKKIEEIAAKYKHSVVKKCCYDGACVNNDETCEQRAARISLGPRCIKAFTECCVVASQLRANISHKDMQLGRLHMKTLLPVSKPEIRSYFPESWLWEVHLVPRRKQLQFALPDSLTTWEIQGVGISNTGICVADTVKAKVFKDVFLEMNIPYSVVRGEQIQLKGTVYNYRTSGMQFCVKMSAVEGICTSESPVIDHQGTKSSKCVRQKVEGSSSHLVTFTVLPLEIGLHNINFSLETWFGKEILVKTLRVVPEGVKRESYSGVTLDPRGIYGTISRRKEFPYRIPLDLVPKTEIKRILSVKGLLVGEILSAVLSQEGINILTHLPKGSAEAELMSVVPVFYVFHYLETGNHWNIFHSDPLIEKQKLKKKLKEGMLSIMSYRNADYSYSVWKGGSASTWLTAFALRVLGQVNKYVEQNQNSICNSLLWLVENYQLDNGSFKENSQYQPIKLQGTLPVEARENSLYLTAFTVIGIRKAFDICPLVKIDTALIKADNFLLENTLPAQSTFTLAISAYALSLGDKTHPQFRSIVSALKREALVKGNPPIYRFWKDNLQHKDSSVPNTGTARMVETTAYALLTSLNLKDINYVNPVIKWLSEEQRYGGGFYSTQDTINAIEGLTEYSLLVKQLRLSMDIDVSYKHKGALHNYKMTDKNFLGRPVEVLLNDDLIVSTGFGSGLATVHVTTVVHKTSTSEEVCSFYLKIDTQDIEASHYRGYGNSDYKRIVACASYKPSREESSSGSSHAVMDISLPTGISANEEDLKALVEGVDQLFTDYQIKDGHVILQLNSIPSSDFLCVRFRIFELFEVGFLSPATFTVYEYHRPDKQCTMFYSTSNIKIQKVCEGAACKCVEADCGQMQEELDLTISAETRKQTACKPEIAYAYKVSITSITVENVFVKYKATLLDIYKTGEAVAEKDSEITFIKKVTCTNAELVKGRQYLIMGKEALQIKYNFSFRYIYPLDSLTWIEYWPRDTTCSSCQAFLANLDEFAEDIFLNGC

EC50 [µg/mL] | EC50 (read off the curve) [µg/mL] | Binder
0.09 | – | B1
0.52 | – | B2
0.099 | – | B3
0.034 | ~0.03 | B4
0.041 | ~0.04 | B5
